First the molecules themselves.
B1: translin‐associated factor‐X (TRAX), endogenous (natural protein, UniProt Q99598 1-290, looked up)
chain: MSNKEGSGGFRKRKHDNFPHNQRREGKDVNSSSPVMLAFKSFQQELDARHDKYERLVKLSRDITVESKRTIFLLHRITSAPDMEDILTESEIKLDGVRQKIFQVAQELSGEDMHQFHRAITTGLQEYVEAVSFQHFIKTRSLISMDEINKQLIFTTEDNGKENKTPSSDAQDKQFGTWRLRVTPVDYLLGVADLTGELMRMCINSVGNGDIDTPFEVSQFLRQVYDGFSFIGNTGPYEVSKKLYTLKQSLAKVENACYALKVRGSEIPKHMLADVFSVKTEMIDQEEGIS
notes: translin-associated factor X (TRAX), endogenous in human primary CD4+ T cells and in Jurkat cells; source: endogenous, human primary CD4+ T cell lysate; endogenous, Jurkat (Jurkat-vector) lysate
B3: FLAG‐tagged TRAX^(Q219A, Q223A) (natural protein, UniProt Q99598 1-290, looked up)
chain: MSNKEGSGGFRKRKHDNFPHNQRREGKDVNSSSPVMLAFKSFQQELDARHDKYERLVKLSRDITVESKRTIFLLHRITSAPDMEDILTESEIKLDGVRQKIFQVAQELSGEDMHQFHRAITTGLQEYVEAVSFQHFIKTRSLISMDEINKQLIFTTEDNGKENKTPSSDAQDKQFGTWRLRVTPVDYLLGVADLTGELMRMCINSVGNGDIDTPFEVSAFLRAVYDGFSFIGNTGPYEVSKKLYTLKQSLAKVENACYALKVRGSEIPKHMLADVFSVKTEMIDQEEGIS
notes: translin-associated factor X (TRAX) with Q219A and Q223A; also called mutTRAX‐FLAG; mutTRAX; source: Jurkat cells, lentivirus (Jurkat‐mutTRAX‐FLAG), in lysate
B4: adenosine receptor 2A (A2AR), endogenous (receptor, UniProt P29274 1-412, looked up)
chain: MPIMGSSVYITVELAIAVLAILGNVLVCWAVWLNSNLQNVTNYFVVSLAAADIAVGVLAIPFAITISTGFCAACHGCLFIACFVLVLTQSSIFSLLAIAIDRYIAIRIPLRYNGLVTGTRAKGIIAICWVLSFAIGLTPMLGWNNCGQPKEGKNHSQGCGEGQVACLFEDVVPMNYMVYFNFFACVLVPLLLMLGVYLRIFLAARRQLKQMESQPLPGERARSTLQKEVHAAKSLAIIVGLFALCWLPLHIINCFTFFCPDCSHAPLWLMYLAIVLSHTNSVVNPFIYAYRIREFRQTFRKIIRSHVLRQQEPFKAAGTSARVLAAHGSDGEQVSLRLNGHPPGVWANGSAPHPERRPNGYALGLVSGGSAQESQGNTGLPDVELLSHELKGVCPEPPGLDDPLAQDGAGVS
notes: adenosine receptor 2A (A2AR), endogenous in human primary CD4+ T cells and in Jurkat cells; also called A2a receptor; source: endogenous, human primary CD4+ T cell lysate; endogenous, Jurkat (Jurkat-vector and Jurkat-mutTRAX-FLAG) lysate

Experiment [1] concerns the target B4. The experiment can be described thus: co-IP; Jurkat‐vector or Jurkat‐mutTRAX‐FLAG cells incubated with 30 µM GHCer or PBS at 37 °C for 1 h; immunoprecipitation with anti‐A2AR, anti‐TRAX or anti‐FLAG, western blot. To be noted: partners not purified. (In general: Immunoblotting shows a protein as a band on a membrane.)
Experiment [2] concerns the target B4. In words: co-IP; human primary CD4+ T cells incubated with 30 µM GHCer or PBS at 37 °C for 1 h; immunoprecipitation with anti‐A2AR or anti‐TRAX, western blot with anti‐TRAX or anti‐A2AR. To be noted: partners not purified.
Experiment [3] concerns the target T1, full‐length recombinant A2AR protein (A2AR‐His, fragment A) (UniProt P29274 1-412).
T1 construct: adenosine receptor 2A (A2AR), full-length (fragment A); the printed end of fragment F (aa 412) fits the human protein; captured on beads by an anti-His antibody; also called full‐length N‐His‐A2AR; A2AR‐full length; source: Escherichia coli, His‐tagged recombinant protein; not shown: His, N-terminal, kept
The experiment can be described thus: Luminex bead-based assay; A2AR‐His full length or fragments captured on Luminex beads conjugated with anti‐His antibody; TRAX in solution, detected by antibody and PE-conjugated antibody; with PBS, 30 µM GHCer or 30 µM GH‐biotin; PBS with 1% BSA, 37 °C, 60 min; signals normalised to full‐length A2AR/PBS/TRAX. The following applies: both partners purified.

Experiment [4] addresses T2, A2AR fragment E (aa 291–393) (UniProt P29274 291-393).
T2 construct: adenosine receptor 2A (A2AR), C-terminal fragment E, aa 291–393; source: Escherichia coli, His‐tagged recombinant protein
Described as above. The following applies: both partners purified.

The target in experiment [5] is T3, A2AR fragment F (aa 291–412) (UniProt P29274 291-412).
T3 construct: adenosine receptor 2A (A2AR), C-terminal fragment F, aa 291–412; source: Escherichia coli, His‐tagged recombinant protein
The description is as above. The following applies: both partners purified.

Experiment [6] concerns the target B1. In words: co-IP; Jurkat‐vector or Jurkat‐mutTRAX‐FLAG cells incubated with 30 µM GHCer or PBS at 37 °C for 1 h; immunoprecipitation with anti‐A2AR, anti‐TRAX or anti‐FLAG, western blot. The following applies: partners not purified.
Experiment [7] deals with B3. Described as above. To be noted: partners not purified.
Experiment [8] has as its target B1. In words: co-IP; human primary CD4+ T cells incubated with 30 µM GHCer or PBS at 37 °C for 1 h; immunoprecipitation with anti‐A2AR or anti‐TRAX, western blot with anti‐TRAX or anti‐A2AR. To be noted: partners not purified.

Regarding B1, the “fold TRAX co-precipitated with GHCer over PBS control” value in experiment [1] was 2.3 fold; in experiment [2] it was 2.1 fold.

B2: recombinant TRAX (His‐tagged) (natural protein, UniProt Q99598 1-290, looked up)
chain: MSNKEGSGGFRKRKHDNFPHNQRREGKDVNSSSPVMLAFKSFQQELDARHDKYERLVKLSRDITVESKRTIFLLHRITSAPDMEDILTESEIKLDGVRQKIFQVAQELSGEDMHQFHRAITTGLQEYVEAVSFQHFIKTRSLISMDEINKQLIFTTEDNGKENKTPSSDAQDKQFGTWRLRVTPVDYLLGVADLTGELMRMCINSVGNGDIDTPFEVSQFLRQVYDGFSFIGNTGPYEVSKKLYTLKQSLAKVENACYALKVRGSEIPKHMLADVFSVKTEMIDQEEGIS
notes: translin-associated factor X (TRAX); source: Escherichia coli, His‐tagged recombinant protein
Take B2: in experiment [3], the “fold binding signal with 30 µM GHCer over PBS control” value was 1.6 fold. The entries for the “fold binding signal with GHCer over fragment A without GHCer” value in experiment [3], in experiment [4] and in experiment [5] were 1.5 fold, 2.3 fold and 1.8 fold, respectively.
Consider B3, for which the “fold co-precipitated by anti‐A2AR with GHCer over PBS control” value in experiment [1] turned out to be 1 fold.
B4: the results for the “fold A2AR co-precipitated with GHCer over PBS control” value in experiment [6] and in experiment [8] were 2 fold and 1.8 fold, respectively. Also, in experiment [7], the “fold co-precipitated by anti‐FLAG with GHCer over PBS control” value turned out to be 1.1 fold.

Source of the values: article PMC12279200, “Tumor‐Associated Glycan Exploits Adenosine Receptor 2A Signaling to Facilitate Immune Evasion” (Advanced Science, 2025).
